The values below come from publication PMC10925265 (bioRxiv, 2024).

What is called stoichiometry N is the number of molecules, sites or subunits per partner or assembly.

The target of data set [1] is calpain-3 (C129A) ΔNS&IS1 (human) (UniProt P20807). In words: SEC-MALS. (In general: In gel filtration, larger molecules generally elute earlier.)
The data set “SEC-SAXS” concerns the molecule itself. As to the kind of experiment: SEC-SAXS.
The data set “native gel or EMSA” concerns the molecule itself. In words: native gel or EMSA. For orientation: In EMSA bound probe runs differently from free probe, usually more slowly.
The data set “SEC-MALS” deals with the molecule itself. As to the kind of experiment: SEC-MALS.

The molecule “titin N2A region I81-I83 fragment (without His-tag) (domain or fragment)” came in with a stoichiometry N (titin per calpain-3) in data set [1] of 2.

B1: calpain-3 (C129A) ΔNS&IS1 (enzyme, human, UniProt P20807-1 1-821, looked up)
chain: MISRNFPIIGVKEKTFEQLHKKCLEKKVLYVDPEFPPDETSLFYSQKFPIQFVWKRPPEICENPRFIIDGANRTDICQGELGDAWFLAAIACLTLNQHLLFRVIPHDQSFIENYAGIFHFQFWRYGEWVDVVIDDCLPTYNNQLVFTKSNHRNEFWSALLEKAYAKLHGSYEALKGGNTTEAMEDFTGGVAEFFEIRDAPSDMYKIMKKAIERGSLMGCSIDTIIPVQYETRMACGLVRGHAYSVTGLDEVPFKGEKVKLVRLRNPWGQVEWNGSWSDRWKDWSFVDKDEKARLQHQVTEDGEFWMSYEDFIYHFTKLEICNLTADALQSDKLQTWTVSVNEGRWVRGCSAGGCRNFPDTFWTNPQYRLKLLEEDDDPDDSEVICSFLVALMQKNRRKDRKLGASLFTIGFAIYEVPKEMHGNKQHLQKDFFLYNASKARSKTYINMREVSQRFRLPPSEYVIVPSTYEPHQEGEFILRVFSEKRNLSEEVENTISVDRPVKKKKTKPIIFVSDRANSNKELGVDQESEEGKGKTSPDKQKQSPQPQPGSSDQESEEQQQFRNIFKQIAGDDMEICADELKKVLNTVVNKHKDLKTHGFTLESCRSMIALMDTDGSGKLNLQEFHHLWNKIKAWQKIFKHYDTDQSGTINSYEMRNAVNDAGFHLNNQLYDIITMRYADKHMNIDFDSFICCFVRLEGMFRAFHAFDKDGDGIIKLNVLEWLQLTMYA
Take B1: the “stoichiometry N” value in “SEC-SAXS” was 6; in the data set “native gel or EMSA”, 2; in “SEC-MALS” it was 5.
